According to the nanobody polyreactivity screen of Harvey et al. (2022):

Assay: yeast display, Sf9 membrane polyspecificity reagent, FACS + sequencing; frameworks hold sequencing errors
In short: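 Polyreactivity labels are assigned by the sorting gate from which each nanobody was recovered. The gates were low and high (top ~1%), set on anti-HA fluorescence for expression and streptavidin fluorescence for reagent binding. Before sorting, galactose-induced (36–48 hours) yeast display cells were stained for 1 hour at 4 °C with 10% biotinylated, detergent-solubilized Sf9 membrane reagent.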

Row | Sequence | polyreactivity (PSR sort gate)
1 | QVQLVESGGGLVQAGGSLRLTCAASGNTFYQYAMGWYRQATGKERELVAAISSSGGSTYYADSVKGRFTISRDNAKNTVYLQMNSLKPEDTAVYYCATDKWYGYYYWGQGTQVTVSS | low polyreactivity
2 | QVQLVESGGGLVQAGGSLRLTCAASGRIFGKYAKGRYRQAAGKEREFVATITRGGGTTSYADSVKGRFTNSRDNAMNTVYLQMNSLKPVDTAVYYCATRYFRGSYRNGDYWGQGTQVTVSS | high polyreactivity
3 | QVQLVESGGGLVQAGGSLRLTCAASGRIFIGYAMGWYRQAPGKERELVAAISRNGDNTYYADSVKGRFTISRDNAKNTVYLQMISLKPEDSAVYYCAAVAYPRQWKLSYEDGSWGYDYWGQGTQVTVSS | low polyreactivity
4 | QVQLVESGGGLVQAGGSLRLTCAASGRIFLYYTMGWYRQAPGKERELVAAITRSGGSTYYADSVKGRFTISRDNAKNTVYLQMNSLKPEDTAVYYCKRAYVRYVPMNYWGQGTQVTLSS | high polyreactivity
5 | QVQLVESGGGLVQAGGSLRLTCAASGRIFPYMGWYRQAPGKERELVAAISSRGGNTYYADSVKGRFTISRDNAKNTVYLQMNSLKPEDTAVYYCNKVKYTWYDWGQGTQVTVSS | high polyreactivity
6 | QVQLVESGGGLVQAGGSLRLTCAASGRIFTRYAMGWYRQAPGKERELVAAINYRGSSTYYADSVKGRFTISRDNAKNTVYLQMNSLKPEDTAVYYCNTYGQTDTYWRYYYWGQGTQVTVSS | high polyreactivity
7 | QVQLVESGGGLVQAGGSLRLTCAASGRIFTRYMGWYRQAPGKERELVATINWSGGSTYYADSVKGRFTISRDNEKNTFYLQMNSLKPEDTAVYYCNARNVHFYYVQYNGAKIFDYWGQGTQVTVSS | low polyreactivity
8 | QVQLVESGGGLVQAGGSLRLTCAASGRIFWGNAMGWYRQAPGKERDLVAAITSCDGTNYADSVKGRFTISRDNAKNTVYLQMNSLKPEDTAVYYCAARKYYYLQYTPRYDYWGQGTQVTVSS | low polyreactivity
9 | QVQLVESGGGLVQAGGSLRLTCAASGRIFYDKSMGWYRQSPGKERELVAAIRRSGGDTYYADSVKGRFTISRDIAKNTVYLQMNSLKTVDTAVYYCADTYSDYGRRYGYWGQGTLVTVSS | high polyreactivity
10 | QVQLVESGGGLVQAGGSLRLTCAASGRIFYGNALGWYRQAPGKERELVAAISSGGGSTYYADSVKGRFTISRDNAKNTVYLQLNSLKPEDTAVYYCAADPVHRFPGTGGFWGKGTQVTVSS | low polyreactivity
11 | QVQLVESGGGLVQAGGSLRLTCAASGRIFYLNAMGWYRQAPGKERELVAGLTNSTTGTYYADSVKGRFTISRDNAKNTVDLQMNSLKPEDTAVYYCNSDVAYEEPVETYDYWGQGTQVTVSS | low polyreactivity
12 | QVQLVESGGGLVQAGGSLRLTCAASGRNFDYNARGWYRQAPGKEREFVAPISGRGGSTYYADSVKGRFTISRDNAKNRVYLQMNSLKPEDTAVYYCAADWRYRYSGRYDYWGQGTQVTVSS | high polyreactivity
13 | QVQLVESGGGLVQAGGSLRLTCAASGRNFRAYAMGWYRQAPGKERELVAAISTSGGSTRYADSVKGRFTISRDNAKNTVYLQMNSLKPEDTAVYYCARYTTRTYEYNYWGQGTQVTVSS | high polyreactivity
14 | QVQLVESGGGLVQAGGSLRLTCAASGRTFAGNAMGWYRQAPGKERELVAAIRRTGGRTYYADSVKGRFTISRDNAKNSVYLQRNSLKPEDTAVYYCYAVNKPYTREYGYDYWGKGTQVTVSS | high polyreactivity
15 | QVQLVESGGGLVQAGGSLRLTCAASGRTFALYAMGWYRQAPGKERELVAGITGRGGTTHYADSVKGRFTISRDYAKNTVYLQMNSLKPEDTAVYYCATTQSWRVPYRRLGYWGQGTQVTVSS | low polyreactivity
16 | QVQLVESGGGLVQAGGSLRLTCAASGRTFDQYAMGWYRQAPGKERDLVAAITSGGSTYYADSVKGRFTISRDNAKNTVYLQMNSLKPEDTAVYYCYTDSSFWGYYIAQVNERDYWGQGTQVTVSS | low polyreactivity
17 | QVQLVESGGGLVQAGGSLRLTCAASGRTFGLNTMGWYRQAPGKERELVAAISRRGGSTYYADSVKGRFTISRDNAKNTVYLQMNSLKPEDTAVYYCARTSYNRYDYWGQGTQVTVSS | high polyreactivity
18 | QVQLVESGGGLVQAGGSLRLTCAASGRTFHGNAMGWYRPAPGKERELVAAISYSGGRTYYADSVKGRFTISRDNAKNTVYLQMNSLKPEDTAVYYCAAWGSSYSFDYWGQGTQVTVSS | high polyreactivity
19 | QVQLVESGGGLVQAGGSLRLTCAASGRTFKYYAMGWYRQAPGKERELVAAITRSGGNTYYADSVKGRFTISRDNAKNTVYLQMNSLKPEDTAVYYCAKRLGYRYPTYDYWGQGTQVSVSS | high polyreactivity
20 | QVQLVESGGGLVQAGGSLRLTCAASGRTFRIYAMGWYRQAPAKERELVAAIRWSGGTTYYADSVKGRFTISRDNTNNSVYLQMNSLKPEDTAVYYCNKARLGWSYRQDDYWGQGTQVTVSS | high polyreactivity
21 | QVQLVESGGGLVQAGGSLRLTCAASGRTFRYYVMGWYRQAPGKERELVASITSDATYYADSVKGRFTISRDNAKNTVYLQLNSLKPEDTAVYYCAKRYPYRHRTYNPVAYDYWGQGTQVTVSS | high polyreactivity

Row | Sequence | polyreactivity (PSR sort gate)
22 | QVQLVESGGGLVQAGGSLRLTCAASGRTFTLNSMGWYRQAPGKERELVAAIRRGGSTYYADSVKGRFTISRDNAKNTVYLQMNSLKPVDTAVYYCAAYKGSYGGYRMQYSYNYWGQGTQVTVSS | high polyreactivity
23 | QVQLVESGGGLVQAGGSLRLTCAASGRTFTVYAMGGYRQAPGKEREFVAAITERGGSTYYADSVKGRFTISRDNAKNTVYLQMNSLKPEDTAVYYCAAVYYWRPGWYVRFDYWGQGTQVTVSS | low polyreactivity
24 | QVQLVESGGGLVQAGGSLRLTCAASGRTFWYYAMGWYRQAPGKERELVAASYYSGDGTYYADSVKGRFTISRDNAKNTVYLQMTSLKPEDTALYYGAAEWSDPTLPTAWSEYEYWGQGTHVTVSS | high polyreactivity
25 | QVQLVESGGGLVQAGGSLRLTCAASGRTFYIYAMGWYRPAPGKERQLVAAITYGGGRTFYADSVKGRFTISRYNAKNTVYLQMNSLKPEDTAVYYCGATVRGKRSTYDYWGQGTQVTVSS | high polyreactivity
26 | QVQLVESGGGLVQAGGSLRLTCAASGRTFYVNAMGWYRQAPGKEREFVAAISRRGGSTYYADSVKGRFTISRDNAKNTVYLQMNCLKPEDTAVYYCNAAYSSRYDYWGQGTQVTVSS | high polyreactivity
27 | QVQLVESGGGLVQAGGSLRLTCAASGSIFDYYAMGWYRQAHGKERELVAAISDSGSTYYADSVKGRFTISRDNAKNTVYVQMNSLKAEDTAVYYCAAVLWSPYRSEPLDTYEYWGQGTQVTVSS | low polyreactivity
28 | QVQLVESGGGLVQAGGSLRLTCAASGSIFGPNTMGWYRQAPGKERELVAAIRCGGSTNYADSVKWRFTISRDNAKNTVYLQMNSLKPDDTAVYYCIATWNLFPGVLDRYVYWGQGTQVTVSS | low polyreactivity
29 | QVQLVESGGGLVQAGGSLRLTCAASGSIFHGNDMGWYRQAPGKETELVATISSGGSTYYADSVKGRFTSSRDNAKTTVYLQMNSLKPEDTAVYYCAAERFWPYKSYYWGQGTQVTVSS | low polyreactivity
30 | QVQLVESGGGLVQAGGSLRLTCAASGSIFPDNAMAWYRQAPGNERELVAAITSSGGSTYYADSVKGRLRISRDNAKNTVYLQMNSLKPADSAVYYCAKGRSYSVAKRRLYKYWGQGTEVTVSS | high polyreactivity
31 | QVQLVESGGGLVQAGGSLRLTCAASGSIFRINAMGWYRQEPGKEREFVAVITSRTGNTYYADSVKGRFTISRDNAKNTVYLQMNSLKPEDTAVYYCAADYPPARWEMEYWGQGTQVTVSS | low polyreactivity
32 | QVQLVESGGGLVQAGGSLRLTCAASGSIFRYYAMGWYRQAPGKERELVAAISSNGGSTYYADSVKGRFTISRDNAKNTVYLQMNSLKPEDTAVYYCAALFRRAPGYYWGQGTQVTVSS | high polyreactivity
33 | QVQLVESGGGLVQAGGSLRLTCAASGSIFSRYAMGWYRQAPGKERELVAAISQRAGSTYYADSVKGRFTISRDNAKNTVYLQMNSLKPEDTAVYYCAARRRGRKERGEDYWGQGTQVTVSS | high polyreactivity
34 | QVQLVESGGGLVQAGGSLRLTCAASGSIFTGYAMRCYRQAPGTERELVAAIRTRGGSPYYADSVKGRFTISRDNAKNTVYLQMNSLKPEDTALYYCAKRYYGWYGNFDYWGQGTQVTVSS | high polyreactivity
35 | QVQLVESGGGLVQAGGSLRLTCAASGSIFYRNAMGWYRQAPGKERELVAAISTDGSTNYADSVKGRFTISRDNAKNTVYLHMNSLIPEDTAVSYCAAPWTQILDYWGQGTQVTVSS | low polyreactivity
36 | QVQLVESGGGLVQAGGSLRLTCAASGSIIKRNAMGWYRQAPGKERELVASISSGGSTKYADSVKGRFTISRDNAKTTVYLQMNSLKPEDTAVYYCPKRSSQTRRAYDYWGQGTQVTVSS | low polyreactivity
37 | QVQLVESGGGLVQAGGSLRLTCAASGSILYTYAMGWYRQAPGKERELVAAISRGGGSTYYADSVKGRFTISRDNAKNTVYLQMNSLKPEDTAVYYCAARKLTRGTGRDDEYWGQGTQVTVSS | high polyreactivity
38 | QVQLVESGGGLVQAGGSLRLTCAASGSTFAWYAMGWYRQAPGKERELVAAISRTGRTYYADSVKGRFTISRDNAKNTVYLQMNSLKPEDTAVYYCAARIERFYRDQRYDYWGQGTQVTVSS | high polyreactivity
39 | QVQLVESGGGLVQAGGSLRLTCAASGSTFDLNAMGWYRQSPGKERELVARISSVGSTNYADSVKGRFTISRDNAKNSVYLQMNSLKPEDTAVYYCNAGFWDLYDYWGQGTQVTVSS | low polyreactivity
40 | QVQLVESGGGLVQAGGSLRLTCAASGSTFIRNTMGWYRQAPGKERELVAAISRSGVRTYYADSVKGRFTISRDNAKNTVYLQMNSLKPEDTAVYYCNVLRYRLWGQGTQVTVSS | high polyreactivity
41 | QVQLVESGGGLVQAGGSLRLTCAASGSTFKYYAMGWYRQAPGKERELVAAINQSGGNTFYAESVKGRFTISRDNAKNSVSLQINSLKPEDTAVYYCAADYYFYTIVSSEMDYWGQGSQVTVSS | high polyreactivity
